Experimental data: PMC3025062

Molecular target: cis-3-chloroacrylic acid dehalogenase (native)
Assay: crystal structure

“cis-3-chloroacrylic acid dehalogenase (native) (enzyme)” was tested. Which stoichiometry N did it give?
Its stoichiometry N is 3.
